The target in experiment [1] is T1, eukaryotically produced human IL-6 (human, UniProt P05231 30-212).
T1 construct: also called eukIL-6; Euk IL-6
Briefly: SPR; purified Fab. (In SPR one partner is held on a chip, and binding of the other changes the refractive index at the surface.)

Experiment [2] deals with T2, cynomolgus monkey IL-6 (cynomolgus monkey, UniProt P79341 28-212, limits assumed).
T2 construct: also called HIS-cyIL-6
In words: SPR; purified Fab.

Experiment [3] concerns the target T3, bacterially produced human IL-6 (human, UniProt P05231 30-212).
T3 construct: also called bactIL-6; prokaryotic IL-6
In words: SPR; purified Fab.

The target in experiment [4] is T1, eukaryotically produced human IL-6. Briefly: SPR; purified Fab; IL-6 coated on CM5 chip.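 Note: dissociation rate taken from the wash phase, association rate fitted over the injection phase with analyte concentration and dissociation rate as inputs.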
Experimental: (§1) From the washing phase the off-rate (kd) was determined, while from the injection phase the on-rate (ka) was calculated using the concentration and off-rate as parameters.
For experiment [5], the target named is T3, bacterially produced human IL-6. In words: SPR; purified Fab; IL-6 coated on CM5 chip.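 Note: dissociation rate taken from the wash phase, association rate fitted over the injection phase with analyte concentration and dissociation rate as inputs.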
Experimental: as §1
Experiment [6] has the same target. In words: SPR; purified Fab over biotinylated IL-6 on streptavidin chip.
Experimental: as §1
For experiment [7], the target named is T1, eukaryotically produced human IL-6. In words: SPR; periplasmic fraction.
The target in experiment [8] is T2, cynomolgus monkey IL-6. Briefly: SPR; periplasmic fraction.
The target in experiment [9] is T3, bacterially produced human IL-6. Briefly: SPR; periplasmic fraction.
In experiment [10] the target is T2, cynomolgus monkey IL-6. In words: SPR; periplasmic fraction; against parental 29B11.
Experiment [11] addresses T3, bacterially produced human IL-6. Briefly: SPR; periplasmic fraction; against parental 29B11.

Substitutions are numbered along the chain they refer to. “And” between values parts separate entries of the source, which are not always exact repeats. Equal values may be shown once.

Experimental findings from patent US20220073604A1 (ARGENX BVBA, published 2022) are described below.

For orientation: Kd means the concentration at which binding is half-saturated. As usually defined, the koff is a measure of how fast the partners let go of each other. For orientation: kon means the second-order rate constant of association.

B1: Fab 41E10/35B1 (Fab, V domains shown)
VH: EVQLQESGPGLVKPSQTLSLTCTVSGGSIATSYYAWSWIRQPPGKGLEWMGVIDYDGDTYYKPSLKSRTSISRDTSKNQFSLQLSSVTPEDTAVYYCARAGLGDSYYLGTYYAMDYWGKGTLVTVSS
VL: QAVLTQPPSMSGTLGKTLTISCNGTSSDIGSGNYVSWYQQLPGTTPKLLIEGVTTRVSGIPDRFSGSKSDNTASLTISGLQSEDEATYYCASYRETNNVVFGGGTHLTVLG
notes: VL-shuffled Fab of 17F10
Take B1: the Kd came to 0.46 nM in [1], 0.34 nM in experiment [2] and 0.54 nM in [3]. The koff in experiment [1] was 0.00016 s⁻¹; in [2] it was 0.00012 s⁻¹; in [3] it was 0.00016 s⁻¹.

B2: Fab 41B5/35C1 (Fab, V domains shown)
VH: B1 VH
VL: B1 VL with A2S, V3A, N33D, V57A, G66A, G111S
notes: VL-shuffled Fab of 17F10
Turning to B2, the Kd in experiment [1] is 0.41 nM and 0.92 nM; in experiment [2], 0.28 nM and 0.72 nM; in experiment [3], 0.47 nM. The koff was 0.00012 s⁻¹ and 0.0002 s⁻¹ in experiment [1]; 8.1e-05 s⁻¹ and 0.00017 s⁻¹ in experiment [2]; 0.00011 s⁻¹ in [3].

B3: Fab 18C9 (Fab, V domains shown)
VH: EVQLVESGGGLVQPGGSLRLSCAASGFTFSRNAMSWVRQAPGKGLEWVSAINSGGGSTSYADSVKGRFTISRDNAKNTLYLQMNSLKPEDTAVYYCAKEGYTGWKDPMYDYWGQGTQVTVSS
VL: LNFMLTQPSALSVTLGQTAKITCQGGSLGSRYAHWYQQKPGQAPVLVIYDDDSRPSGIPERFSGSSSGGRATLTISGAQAEDDGDYYCQSADSSGNASVFGGGTHLTVLG
notes: Fab
In the case of B3, in experiment [4], the Kd stood at 2.4 nM and the koff is 0.00021 s⁻¹. In experiment [5], the Kd amounted to 4.9 nM and the koff was 0.00036 s⁻¹. In experiment [6], this molecule yielded a Ka of 4.67e+07 M⁻¹, a Kd of 21.4 nM, an off-rate (koff) of 0.00119 s⁻¹ and a kon of 55600 M⁻¹ s⁻¹.

B4: Fab 18C11 (Fab, V domains shown)
VH: B3 VH with R31S, N32Y, Y101D
VL: QSVVTQPSALSVTLGQTAKITCQGGGLRSSYAHWYQQKPGQAPVLVIYDDDSRPSGIPERFSGSSSGGRATLTISGAQAEDEGDYYCQSADSSGNAAVFGGGTHLTVLG
notes: Fab
In [6], B4 had a Ka of 7.05e+07 M⁻¹, a Kd of 14.2 nM, a koff of 0.000784 s⁻¹ and a kon of 55200 M⁻¹ s⁻¹. In experiment [1], this molecule had a Kd of 2.9 nM and a koff of 0.00076 s⁻¹. In experiment [2], this molecule yielded a Kd of 3.4 nM and a koff of 0.00085 s⁻¹.

B5: Fab 42H1/36A1 (Fab, V domains shown)
VH: B3 VH with R31S, N32Y, Y101D
VL: B3 VL with L1A, N2Q, F3S, M4A, S30T, D83E
notes: VL-shuffled Fab of 18C11
With B5, the Kd was 0.34 nM in [1], 0.69 nM in experiment [2] and 0.75 nM in [3]. The off-rate constant (koff) in experiment [1] was determined as 0.00011 s⁻¹; in experiment [2], 0.00015 s⁻¹; in experiment [3], 0.00015 s⁻¹.

B6: Fab 24E9 (Fab, V domains shown)
VH: EVQLVESGGGLVQPGGSLRLSCAASGFTFSTYAMSWVRQAPGKGPEWVSRISSGGGSTNYADSVKGRFTISRDNAKKTLYLQMKSLKPEDTAVYYCANRAGWGMGDYWGQGTQVTVSS
VL: QTVVTQEPSLSVSPGGTVTLTCGLSSGSVTASNYPGWFQQTPGQAPRALIYSTNDRHSGVPSRFSGSISGNKAALTITGAQPEDEADYYCALDIGDITEFGGGTHLTVLG
notes: Fab
With B6, in experiment [4], the Kd worked out at 0.71 nM and the koff came out at 0.00024 s⁻¹. Further, in experiment [5], the Kd came out at 0.93 nM and the koff is 0.00029 s⁻¹. In experiment [6], the Ka is 8.38e+08 M⁻¹; the affinity, expressed as Kd, was 1.19 nM; the koff is 0.000139 s⁻¹; the association rate constant (kon) amounted to 117000 M⁻¹ s⁻¹.

B7: Fab 24C9 (Fab, V domains shown)
VH: QVQLVESGGGLVQPGGSLRLSCAASGFTFSSYRMYWVRQPPGKGLEWVSAISAGGGSTYYGDSVKGRFTISRDNAKNTVYLQMNSLKPEDTALYYCKKSTWADGESDYWGQGTQVTVSS
VL: B6 VL
notes: Fab
B7: in [4], the equilibrium dissociation constant (Kd) was found to be 1.7 nM and the koff was 0.0003 s⁻¹. Further, in experiment [5], the Kd came to 2.6 nM and the koff was 0.00037 s⁻¹. Further, in [6], the Ka came out at 1.51e+09 M⁻¹, the Kd stood at 0.661 nM, the dissociation rate constant (koff) came to 8.77e-05 s⁻¹ and the kon stood at 133000 M⁻¹ s⁻¹.

B8: Fab 29B11 (Fab, V domains shown)
VH: EVQLVESGGGLVQPGGSLRLSCAASGFTFSSYAMSWVRQAPGKGLEWVSRISSGGISTYYADSVKGRFTISRDNAKNTLYLQMNSLKPEDTAVYYCVRYAWGVQWAFDFWGQGTQVTVSS
VL: QSVLTQPPSVSGSPGQTVTISCAGTSEDVGYGNYVSWYQQLPGMAPKLLIYDVNKRASGIADRFSGSKSGNTASLTISGLQSEDEADYYCASYRRTIDNIFGGGTHLTVLG
notes: Fab
As to B8, the Kd in experiment [4] was determined as 0.51 nM; in experiment [5], 0.93 nM; in experiment [7] it was 0.546 nM; in [8], 6.61 nM; in experiment [9], 0.524 nM; in [6], 22.9 nM. Moreover, the koff in [4] came out at 0.0001 s⁻¹; in experiment [5], 0.00022 s⁻¹; in experiment [7], 0.000102 s⁻¹; in experiment [8], 0.000746 s⁻¹; in [9], 0.000131 s⁻¹; in [6] it was 0.00298 s⁻¹. Also, the Ka was determined as 1.83e+09 M⁻¹ in experiment [7], 1.51e+08 M⁻¹ in [8], 1.91e+09 M⁻¹ in [9] and 4.36e+07 M⁻¹ in experiment [6]. In addition, the kon in [7] was 187000 M⁻¹ s⁻¹; in [8], 113000 M⁻¹ s⁻¹; in experiment [9] it was 251000 M⁻¹ s⁻¹; in [6], 130000 M⁻¹ s⁻¹.

B9: Fab 48C10 (Fab, V domains shown)
VH: B8 VH
VL: AQSVLTQPPSVSGSPGQTVTISCAGTSEDVGYGNYVSWYQQLPGMAPKLLIYDVNKRASGIADRFSGSKSGNTASLTISGLQSEDEADYYCASYRRTIDNIFGGGTHLTVLG
notes: VL-shuffled Fab of 29B11, periplasmic fraction
In the case of B9, in experiment [10], the “fold improvement KD” value was determined as 2.71 fold, the fold improvement ka was found to be 1.59 fold and the fold improvement kd amounted to 1.7 fold. Also, in experiment [11], the “fold improvement KD” value was determined as 0.75 fold, the fold improvement ka was 1.04 fold and the fold improvement kd stood at 0.71 fold. In experiment [8], this molecule came in with a Ka of 4.1e+08 M⁻¹, a Kd of 2.44 nM, a koff of 0.00044 s⁻¹ and a kon of 180000 M⁻¹ s⁻¹. Also, in experiment [9], the Ka is 1.43e+09 M⁻¹, the Kd is 0.701 nM, the koff was found to be 0.000184 s⁻¹ and the kon came to 262000 M⁻¹ s⁻¹.
